What all share (settings): both partners purified
Assay [1] has as its target T1, FliT (Salmonella enterica serovar Typhimurium …, UniProt P0A1N2 1-122).
T1 construct: FliT, flagellar chaperone of FliD, Salmonella enterica serovar Typhimurium ST313; Used free in the NMR titration; in the structures it stands as the FliT part of the fused chain m9; also called flagellar chaperone FliT; substrate-free FliT; source: E. coli BL21(DE3), purified (Ni Sepharose, TEV tag removal, Superdex 75)
T1 sequence: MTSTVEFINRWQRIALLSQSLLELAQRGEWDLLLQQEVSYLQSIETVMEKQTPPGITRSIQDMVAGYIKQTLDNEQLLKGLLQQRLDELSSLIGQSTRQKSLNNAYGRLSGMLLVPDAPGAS
As to the kind of experiment: crystal structure; ternary complexes of FlhA^C with the fused chaperone–substrate constructs; proteins at 10 g/L.

Assay [2] concerns the target T2, cytoplasmic domain of Salmonella enterica serovar Typhimurium FlhA (FlhA^C) (Salmonella enterica serovar Typhimurium …, UniProt P40729 362-692).
T2 construct: FlhA, globular cytoplasmic domain, Salmonella enterica serovar Typhimurium ST313, residues 362-692 (36.4 kDa); also called export gate platform protein; source: E. coli BL21(DE3), purified (Ni Sepharose, TEV tag removal, Superdex 75)
T2 sequence: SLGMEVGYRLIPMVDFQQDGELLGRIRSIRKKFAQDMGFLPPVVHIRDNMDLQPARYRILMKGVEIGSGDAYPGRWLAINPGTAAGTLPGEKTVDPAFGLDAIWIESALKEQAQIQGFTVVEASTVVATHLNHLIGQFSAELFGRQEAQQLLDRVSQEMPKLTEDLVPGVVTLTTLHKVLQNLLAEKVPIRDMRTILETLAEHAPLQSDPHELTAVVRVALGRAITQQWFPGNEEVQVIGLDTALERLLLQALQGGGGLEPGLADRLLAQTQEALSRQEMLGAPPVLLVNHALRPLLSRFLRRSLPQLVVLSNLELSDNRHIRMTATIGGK
As to the kind of experiment: ITC; FlhA^C and variants (0.1–0.2 mM) in the cell, FliT-FliD, FliS-FliC and variants (1.0–2.0 mM) in the syringe; 25 °C; 50 mM NaPi pH 6.8, 300 mM NaCl, 0.05% NaN3; one-site binding model. On the technique in general: Isothermal titration calorimetry measures the heat released or taken up as one component is titrated into another.

Assay [3] addresses T2, cytoplasmic domain of Salmonella …. Nature of the assay: NMR titration; unlabelled partner added to isotopically labelled FlhA^C (and unlabelled FlhA^C to labelled chaperone–substrate complex); 25 °C; 50 mM NaPi pH 6.8, 300 mM NaCl, 0.05% NaN3; typically 0.3 mM labelled protein.
In assay [4] the target is T3, FliS (UniProt P26609 1-135).
T3 construct: FliS, flagellar chaperone of flagellin FliC; Used free in the NMR titration; in the crystal structure it stands as the FliS part of the fused chain m10; also called flagellar chaperone FliS; substrate-free FliS; source: E. coli BL21(DE3), purified (Ni Sepharose, TEV tag removal, Superdex 75)
T3 sequence: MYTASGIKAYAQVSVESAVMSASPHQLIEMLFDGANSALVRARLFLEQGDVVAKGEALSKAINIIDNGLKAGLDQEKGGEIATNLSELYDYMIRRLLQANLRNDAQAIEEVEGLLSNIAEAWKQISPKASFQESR
Nature of the assay: crystal structure; ternary complexes of FlhA^C with the fused chaperone–substrate constructs; proteins at 10 g/L.

B1: FliD^C (last 40 C-terminal residues of FliD) (domain or fragment)
chain: SIDETVARYKAQFTQLDTMMSKLNNTSSYLTQQFTAMNKS
notes: source: E. coli BL21(DE3), purified; stands as a part of the fused chain m9
Consider B1, for which, in assay [1], the binding result was “binds”.

B2: FliS−FliC chaperone–substrate complex (non-fused) (complex)
chain 1: T3 sequence
chain 2: […]
notes: FliS; FliC, flagellin; Complex formed beforehand and added to FlhA^C; source: E. coli BL21(DE3), purified (Ni Sepharose, TEV tag removal, Superdex 75)
Usually Kd stands for the concentration at which binding is half-saturated. Read a low Kd as tighter binding. In assay [2], B2 had a Kd of around 8 µM.

B3: FlgN (natural protein)
chain: MTRLSEILDQMTTVLNDLKTVMDAEQQQLSVGQINGSQLQRITEEKSSLLATLDYLEQQRRLEQNAQRSANDDIAERWQAITEKTQHLRDLNQHNGWLLEGQIERNQQALEVLKPHQEPTLYGADGQTSVSHRGGKKISI
notes: FlgN, chaperone of FlgK and FlgL, Salmonella enterica serovar Typhimurium ST313; also called chaperone FlgN; FlgN without substrate; source: E. coli BL21(DE3), purified (Ni Sepharose, TEV tag removal, Superdex 75)
With B3, the binding result in assay [3] was “binds”.

B4: FliC^C (FliC residues 454–495) (domain or fragment)
chain: IEDSDYATEVSNMSRAQILQQAGTSVLAQANQVPQNVLSLLR
notes: FliC^C: flagellin FliC residues 454-495;; source: E. coli BL21(DE3), purified; stands as a part of the fused chain m10
Turning to B4, the binding result in assay [4] is listed as “binds”.

The values are drawn from PMC5932034, “Structures of chaperone-substrate complexes docked onto the export gate in a type III secretion system” (Nature Communications, 2018).
